Data taken from patent US20160002338A1 (Hoffmann-La Roche, published 2016).

What was measured:
[1] = target: T1, HER4 ECD binding epitope peptide VYNPTTFQLE (human); experiment: CelluSpots peptide array, 1 µg/mL antibody
T1 construct: the spotted peptides were longer
T1 peptide: VYNPTTFQLE

[2] = target: T2, HER3 ECD binding epitope peptide VYNKLTFQLEP (human); experiment: CelluSpots peptide array, 1 µg/mL antibody
T2 construct: the spotted peptides were longer
T2 peptide: VYNKLTFQLEP

[3] = target: T3, human recombinant HER3 ECD (human, UniProt P21860 20-643); experiment: SPR Biacore 3000, antibody captured, 25 C
T3 construct: 68 kDa; also called human-Her3-ECD; full length Her3 ECD
T3 sequence (P21860 20-643): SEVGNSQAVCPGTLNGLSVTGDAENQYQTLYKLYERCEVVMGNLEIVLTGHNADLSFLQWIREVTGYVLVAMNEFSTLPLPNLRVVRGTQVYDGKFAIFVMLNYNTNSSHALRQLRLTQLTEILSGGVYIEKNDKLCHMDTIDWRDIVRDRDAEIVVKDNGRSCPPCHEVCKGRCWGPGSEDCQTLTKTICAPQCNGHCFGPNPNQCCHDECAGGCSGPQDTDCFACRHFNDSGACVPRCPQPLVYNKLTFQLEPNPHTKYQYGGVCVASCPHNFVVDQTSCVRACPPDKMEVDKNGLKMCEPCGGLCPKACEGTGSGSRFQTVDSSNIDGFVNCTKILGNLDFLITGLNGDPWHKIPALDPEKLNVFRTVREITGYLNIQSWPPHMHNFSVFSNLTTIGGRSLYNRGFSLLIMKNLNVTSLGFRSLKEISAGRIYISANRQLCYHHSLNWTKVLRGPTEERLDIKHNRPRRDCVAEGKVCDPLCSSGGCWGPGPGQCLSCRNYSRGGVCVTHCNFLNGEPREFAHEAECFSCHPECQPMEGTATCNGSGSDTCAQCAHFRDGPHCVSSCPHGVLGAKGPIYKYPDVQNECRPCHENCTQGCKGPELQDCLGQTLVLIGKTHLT
Protocol: (§1) A CM5 series sensor was mounted into the system and was normalized in HBS-ET buffer (10 mM HEPES pH 7.4, 150 mM NaCl, 3 mM EDTA, 0.005% w/v Tween 20) according to the manufacturer's instructions. The sample buffer was the system buffer supplemented with 1 mg/ml CMD (Carboxymethyldextran). The system operated at 25° C. 10000 RU RAM-Fcγ(relative units of Fcγ-fragment Rabbit Anti-Mouse IgG/Jackson Laboratories) were immobilized according to the manufacturer's instructions using EDC/NHS chemistry on all flow cells. The sensor was deactivated using 1M ethanolamine. Analytes in solution were injected at 100 μl/min at different concentration steps of 0 nM, 1.1 nM, 3.7 nM, 11.1 nM, 33.1 nM and 90 nM for 2 min. The dissociation was monitored for 5 min. Acidic regeneration of the sensor surface was achieved using three consecutive injections of 10 mM Glycine pH 1.7 at 30 μl/min for 60 sec. Kinetic data were evaluated according to a Langmuir fit.

[4] = target: T4, HER3 ECD-HRG complex (human, UniProt P21860 20-643); experiment: SPR Biacore 3000, antibody captured, 25 C
T4 construct: also called Heregulin/Her-3 ECD
T4 sequence (P21860 20-643 limits assumed, one chain of several): as the sequence (P21860 20-643) above
Protocol: as §1

[5] = target: T5, TtSlyD-FKBP-Her3; experiment: SPR Biacore 3000, antibody captured, 25 C
T5 construct: 15 kDa; N-terminal Met may be present or not; also called Thermus thermophilus SlyD FKBP-Her3; thermo SlyD-Her3
T5 chain: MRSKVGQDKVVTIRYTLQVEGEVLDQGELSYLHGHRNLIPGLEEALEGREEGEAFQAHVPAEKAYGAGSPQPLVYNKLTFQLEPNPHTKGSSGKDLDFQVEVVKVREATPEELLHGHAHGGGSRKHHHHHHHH
Protocol: as §1

[6] = target: T3, human recombinant HER3 ECD; experiment: SPR Biacore 3000, 37 C
[7] = target: T4, HER3 ECD-HRG complex; experiment: SPR Biacore 3000, 37 C
[8] = target: T6, HER4 ECD-HRG complex (human, UniProt Q15303 26-651); experiment: SPR Biacore 3000, 37 C
T6 construct: HER4 ECD preincubated with a 5-fold molar excess of Heregulin; also called HER-4-ECD-RG
T6 sequence 1: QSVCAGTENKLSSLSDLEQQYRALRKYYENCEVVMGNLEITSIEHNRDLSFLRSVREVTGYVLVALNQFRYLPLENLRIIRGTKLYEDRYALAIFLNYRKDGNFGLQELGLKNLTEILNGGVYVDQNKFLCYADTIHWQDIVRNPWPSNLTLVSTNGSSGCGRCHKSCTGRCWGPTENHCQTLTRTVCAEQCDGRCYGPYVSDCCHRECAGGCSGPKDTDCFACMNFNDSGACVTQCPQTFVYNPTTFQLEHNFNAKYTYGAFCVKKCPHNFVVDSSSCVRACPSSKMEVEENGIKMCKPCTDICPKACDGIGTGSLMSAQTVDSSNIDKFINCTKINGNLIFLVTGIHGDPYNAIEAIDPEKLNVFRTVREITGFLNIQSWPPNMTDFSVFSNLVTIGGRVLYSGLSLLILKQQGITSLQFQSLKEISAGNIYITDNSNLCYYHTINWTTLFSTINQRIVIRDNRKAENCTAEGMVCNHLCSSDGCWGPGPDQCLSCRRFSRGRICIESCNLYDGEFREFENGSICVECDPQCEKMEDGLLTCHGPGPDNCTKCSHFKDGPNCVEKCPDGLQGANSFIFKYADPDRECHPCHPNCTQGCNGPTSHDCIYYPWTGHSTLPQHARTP
T6 sequence 2: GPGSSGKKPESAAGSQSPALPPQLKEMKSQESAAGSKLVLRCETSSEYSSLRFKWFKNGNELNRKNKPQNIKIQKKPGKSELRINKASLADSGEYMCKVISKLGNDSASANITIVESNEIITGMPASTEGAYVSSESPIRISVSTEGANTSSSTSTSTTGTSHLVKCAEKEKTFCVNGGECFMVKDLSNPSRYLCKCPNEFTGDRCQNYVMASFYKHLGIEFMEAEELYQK

B1: anti-HER3/HER4 antibody M-05-74 (antibody, V domains shown)
VH: QVQLQQSGAELAKPGASVKMSCKTSGYTLTDYWIHWVKQRPGQGLEWIGYINPYTGYTESNQKFKDKATLTADKSSNTAYIQLSSLTSEDSAVYYCARPYYYGDYWGQGTTLTVSS
VL: QIVLTQSPAIMSASPGERVTITCSASSSVSYMHWFQQKPGTSPKLLIYSTSNLASGVPARFSGSGSGTSYSLTISRMEAEDAATYYCQQRSSYPFTFGSGTKLEIK
notes: murine monoclonal antibody from hybridoma (supernatant or purified); also called M-074; M-5-74
[1]
  binding result: binds
[2]
  binding result: binds
[3]
  Binding Late BL: 36 RU
  Molar Ratio MR: 0.2
[4]
  Binding Late BL: 199 RU
  Molar Ratio MR: 0.8
[5]
  Binding Late BL: 68.1 RU
  Molar Ratio MR: 1.5
[6]
  Molar Ratio MR: 0.6
[7]
  Molar Ratio MR: 0.7
[8]
  Molar Ratio MR: 0.9
